Test results from paper PMC4163360.

Target: selenomethionyl (Se-Met) labeled MJ0927 (Methanocaldococcus jannaschii)
Assay: crystal structure; Se-Met MJ0927, P2_(1) crystal form, MAD phasing; crystals grown at 4°C, 5% PEG3350, 0.1 M sodium acetate pH 5.0, 0.3 M sodium formate, 0.1 M ammonium sulfate, 3% PGA-LM; six molecules in the asymmetric unit

“selenomethionyl (Se-Met) labeled MJ0927 (natural protein)” was tested. Which stoichiometry N did it give?
The stoichiometry N was 6.
